Reference: ChEMBL document CHEMBL1122067, “Species- or isozyme-specific enzyme inhibitors. 4. Design of a two-site inhibitor of adenylate kinase with isozyme selectivity” (J Med Chem, 1982)

Key:
[1] = compound: CCSc1nc2c(N)ncnc2n1[C@@H]1O[C@H](COP(=O)(O)O)[C@@H](O)[C@H]1O; experiment: Inhibitory constant of rat adenylate kinase (AK II) isozymes expressed as relative maximal velocity
[2] = compound: CC(=O)NCCCCCCCCNc1ncnc2c1ncn2C1O[C@H](COP(=O)(O)O)[C@@H](O)[C@H]1O; experiment: (§1) Inhibitory constant of rat adenylate kinase (AK III) isozymes expressed as relative maximal velocity
[3] = compound: CCCCN(CCCC)c1ncnc2c1ncn2C1O[C@H](COP(=O)(O)OP(=O)(O)OP(=O)(O)O)[C@@H](O)[C@H]1O; experiment: as §1
[4] = compound: CCCCNc1ncnc2c1ncn2C1O[C@H](COP(=O)(O)OP(=O)(O)OP(=O)(O)O)[C@@H](O)[C@H]1O; experiment: as §1
[5] = compound: CCCCSc1ncnc2c1ncn2C1O[C@H](COP(=O)(O)OP(=O)(O)OP(=O)(O)O)[C@@H](O)[C@H]1O; experiment: as §1
[6] = compound: Nc1ncnc2c1ncn2[C@@H]1O[C@H](COP(=O)(O)O)[C@@H](O)[C@H]1O; experiment: as §1
[7] = compound: O=C(CI)NCCCCCNc1ncnc2c1ncn2C1O[C@H](COP(=O)(O)OP(=O)(O)OP(=O)(O)O)[C@@H](O)[C@H]1O; experiment: as §1
[8] = substrate: CC(=O)NCCNc1ncnc2c1ncn2C1O[C@H](COP(=O)(O)O)[C@@H](O)[C@H]1O; experiment: Rat Adenylate kinase III and maximal velocity was determined
[9] = substrate: CCCCNc1ncnc2c1ncn2C1O[C@H](COP(=O)(O)OP(=O)(O)OP(=O)(O)O)[C@@H](O)[C@H]1O; experiment: (§2) Concentration for half-maximal velocity for adenylate kinase (AK III) was determined
[10] = substrate: CCCCSc1ncnc2c1ncn2C1O[C@H](COP(=O)(O)OP(=O)(O)OP(=O)(O)O)[C@@H](O)[C@H]1O; experiment: as §2
[11] = substrate: Nc1ncnc2c1ncn2[C@@H]1O[C@H](COP(=O)(O)O)[C@@H](O)[C@H]1O; experiment: as §2
[12] = substrate: O=C(CI)NCCCCCNc1ncnc2c1ncn2C1O[C@H](COP(=O)(O)OP(=O)(O)OP(=O)(O)O)[C@@H](O)[C@H]1O; experiment: as §2

B1: GTP:AMP phosphotransferase AK3, mitochondrial (Rattus norvegicus), P29411 (protein)
chain: MGASGRLLRAVIMGAPGSGKGTGSSRITKHFELKHLSSGDLLRQNMLQGTEIAVLAKSFIDQGKLIPDDDMTRLALHELKNLTQCSWLLDGFPRTLPQAEALDRVYQIDTVINLNVPFEVIKLRLTARWIHPASGRVYNIEFNPPKTVGIDDLTGEPLIQREDDKPETVIKRLKAYEAQTEPVLQYYQKKGVLETFSGTETNKIRPHVYSFLQMKVPETIQKASVTP
How did the Vmax [1] turn out when B1 was run?
Its Vmax is 0%.

What about the Vmax [2] of the same protein?
The Vmax was 0%.

And the Vmax [3]?
Its Vmax is 0%.

And the Vmax [4]?
Its Vmax is 25%.

And the Vmax [5]?
The Vmax was 57%.

And the Vmax [6]?
The Vmax was 100%.

What about the Vmax [7] of the same protein?
Its Vmax is 9%.

And the Vmax [8]?
The Vmax was 0%.

And the Km [9]?
Its Km is 1200 µM.

And the Km [10]?
The Km was 1450 µM.

What about the Km [11] of the same protein?
The Km was 90 µM.

What about the Km [12] of the same protein?
Its Km is 400 µM.
